From US20190062395A1 (MEDICENNA THERAPEUTICS, published 2019)

Target: T1, interleukin 2 receptor beta (IL-2Rβ) (UniProt P14784 27-240, limits assumed)
T1 construct: also called CD122
T1 sequence (looked up): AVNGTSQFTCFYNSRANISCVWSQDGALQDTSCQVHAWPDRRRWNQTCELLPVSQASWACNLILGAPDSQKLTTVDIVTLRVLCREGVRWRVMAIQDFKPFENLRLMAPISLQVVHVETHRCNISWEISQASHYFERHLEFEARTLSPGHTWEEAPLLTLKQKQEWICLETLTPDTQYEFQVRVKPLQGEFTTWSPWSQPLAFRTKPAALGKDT
Assay: method not stated; Kd column of the H9 substitution matrix; target not given

Kd: 1.3 nM
B1: H9 (IL-2 mutein having the amino acid substitutions L80F, R81D, L85V, I86V, and I92F, numbered in accordance with wild-type human IL-2 of SEQ ID NO:2) (ligand)
chain: APTSSSTKKTQLQLEHLLLDLQMILNGINNYKNPKLTRMLTFKFYMPKKATELKHLQCLEEELKPLEEVLNLAQSKNFHFDPRDVVSNINVFVLELKGSETTFMCEYADETATIVEFLNRWITFCQSIISTLT
notes: also called IL-2 superkine
